B1: NKCC2: N442Q/N452Q (protein)
parent chain: MSVSIPSNSVPSSASRFQVHVINEGHGSAAAVGDSADPPHYEETSFGDEAQNRLRISFRPGNQECYDNFLQTGETAKTDTTFHAYDSHTNTYYLQTFGHNTMDAVPKIEYYRNTGSVSGPKVNRPSLLEIHEQLAKNVTVAPGSADRVANGDGMPGDEQAENKEEDMTGVVKFGWVKGVLVRCMLNIWGVMLFIRLSWIVGEAGIGLGVLIILLSTMVTSITGLSTSAIATNGFVRGGGAYYLISRSLGPEFGGSIGLIFAFANAVAVAMYVVGFAETVVDLLKESDSMMVDPTNDIRIIGSITVVILLGISVAGMEWEAKAQVILLVILLIAIANFFIGTVIPSNNEKKSRGFFNYQASIFAENFGPSFTKGEGFFSVFAIFFPAATGILAGANISGDLEDPQDAIPRGTMLAIFITTVAYIGVAICVAACVVRDATGSMNDTIVSGMNCNGSAACGLGYDFSRCQHEPCQYGLMNNFQVMSMVSGFGPLITAGIFSATLSSALASLVSAPKVFQALCKDNIFKGLQFFAKGYGKNNEPLRGYFLTFVIAMAFILIAELNVIAPIISNFFLASYALINFSCFHASYAKSPGWRPAYGIYNMWVSLFGAILCCAVMFVINWWAAVITYVIELFLYIYVTYKKPDVNWGSSTQALSYVSALDNALELTTVEDHVKNFRPQCIVLTGGPMTRPALLDITHAFTKNSGLCICCEVFVGPRKLCVKEMNSGMAKKQAWLIKNKIKAFYAAVAADCFRDGVRSLLQASGLGRMKPNTLVIGYKKNWRKAPLSELENYVGIIHDAFDFEIGVVIVRISQGFDISPVLQVQDELEKLEQERLALEAAIKDNECEEGKGGIRGLFKKAGKLNITKPAPKKDGNISSIQSMHVGEFNQKLVEASAQFKKKQGKGTIDVWWLFDDGGLTLLIPYILTLRKKWKDCKLRIYVGGKITRIEEEKISMASLLSKFRIKFADIHIIGDINIKPNKESWKVFEEMIEPYRLHESHKDLTTAEKLKRESPWKITDAELEAVKEKSYRQVRLNELLQEHSRAANLIVLSLPVARKGSISDLLYMAWLEILTKNLPPVLLVRGNHKNVLTFYS
B2: NKCC2: kifunensine 25 µM, 6 h (protein)
parent chain: B1 parent chain

Columns and labels:
[1] = immunoblot of total NKCC2 ± ManIA co-expression, HEK cells; conditions: glycan lost; control: WT NKCC2
[2] = immunoblot of NKCC2 ± ManIA co-expression, OKP cells; conditions: glycan changed form; control: untreated cells

Protein	other: ManIA-induced down-regulation of NKCC2 protein [1]	other: ManIA-induced down-regulation of NKCC2 protein [2]
B1	decreases	–
B2	–	decreases
